# Data published in patent publication US20230146533A1, “KERATIN BD-10, PREPARATION METHOD THEREFOR AND PHARMACEUTICAL COMPOSITION AND USE THEREOF” (INSTITUTE OF MATERIA MEDICA, CHINESE ACADEMY OF MEDICAL …, priority 2019, published 2023).
# Key:
# [1] = system: mice cough induced by ammonia water; test: Antitussive test, cough induced by ammonia water in mice; format: in vivo, ICR mice; details: for Incubation period (cough) / Number of coughs: 10% ammonia water atomized 10 seconds one hour later, X ± SEM; for Number of coughs: coughs within 2 minutes
# Method: Animals: male ICR mice; Drugs and reagents: dextromethorphan hydrobromide, ammonia water, 0.2% CMC-Na, protein BD-10; Apparatus: Compressed nebulizer (403T type), balance (XS105DU type). Experiment grouping: • Solvent control group; • Dextromethorphan 15 mg/kg group; • Protein BD-10, 20 mg/kg group, 50 mg/kg group.
# Dextromethorphan and different doses of protein BD-10 (administration volume 10 ml/kg) were given orally in groups, and the solvent control group was given the same volume of distilled water. One hour later, mice were put into a sealed box and atomized 10% ammonia water for 10 seconds, and then observed and recorded the incubation period of cough in mice and the number of coughs in 2 minutes.
# Record the time point of oral administration, the time point of atomization experiment, the incubation period of mice cough and the number of coughs within 2 minutes, respectively. The incubation period of cough refers to the number of seconds from the start of the atomization of ammonia to the occurrence of cough. The performance of coughing in mice is based on contraction of their abdominal muscles (breast contraction) and opening their mouths at the same time. Calculate the mean and standard error of each group of data, and use TTEST to compare the model group with other groups, and P<0.05 is considered as a significant difference.
# [2] = system: PLO-induced epilepsy in mice; test: Pilocarpine (PLO) induced convulsive epilepsy in mice; format: in vivo, ICR mice; parameters: mortality rate: unit not given here; details: for Grade IV seizure rate / mortality rate / Grade II seizure incubation period / Grade III seizure incubation period / Grade IV seizure incubation period / Cases of deaths / Cases of Grade IV: PLO 225 mg/kg i.p.; for Grade IV seizure rate / mortality rate: 10 mice; for Grade II seizure incubation period / Grade III seizure incubation period / Grade IV seizure incubation period: mean ± SEM; for Grade IV seizure incubation period: mice not reaching Grade IV recorded as maximum 1800 seconds; for Cases of deaths / Cases of Grade IV: of 10 mice; for Cases of Grade IV: 30 minutes observation
# Method: Animals: male ICR mice; Drugs: Pilocarpine HCl (PLO, pilocarpine, pilocarpine hydrochloride), Diazepam (diazepam tablets), protein BD-10.
# Experiment grouping: • Model group: • Diazepam 2 mg/kg group; • Protein BD-10, 50 mg/kg group, 200 mg/kg group.
# The drug was administered once in the afternoon the day before modeling, PLO-225 mg/kg (modeling agent) was injected intraperitoneally 1 hour after the test drug was administered intragastrically on the day of modeling. And positive drug can be administered once 20 minutes before modeling. Observe for 30 minutes after PLO injection.
# Observation indicators: (1)Seizure situation: the time of seizures from Grade II to Grade IV; (2)the time to death.
# (§1) Seizure grade: Refer to Racine grading standard: Grade 0: No response; Grade I: manifested as twitching of facial muscles or the corners of the mouth; Grade II: can nod; Grade III: twitching of one limb; Grade IV: rigidity or body twitching; Grade V: generalized epilepsy (generalized tonic seizures).
# Count the number of Grade IV seizures and deaths in each group of mice in the experiment; Grade II, III and IV incubation period. […] Chi-square test was used for statistics of the number of cases. The mean value and standard error of the incubation period were calculated, and TTEST was used to compare the model group with other groups. P<0.05 was considered as a significant difference.
# [3] = system: acetic acid writhing of ICR mice; test: Acetic acid writhing test in ICR mice; format: in vivo; details: for Frequency of writhing / Writhing incubation period: observed within 15 minutes
# Method: Animals: male ICR mice; Drugs and reagents: aspirin, physiological saline, glacial acetic acid, protein BD-10. Experiment grouping: • Model group; • Aspirin 300 mg/kg group; • Protein BD-10, 50 mg/kg group, 200 mg/kg group.
# One day after the experimental animals adapt to the environment, Aspirin 300 mg/kg, protein BD-10 50 mg/kg, 200 mg/kg were given orally one hour in advance, and the administration volume was 10 ml/kg; Then, 0.6% acetic acid solution was injected intraperitoneally, and the incubation period (seconds) and frequency of writhing in the animal was observed within 15 minutes.
# Calculate the mean and standard error of the data in each group. Compared with the model group by TTEST, P<0.05 was considered as statistically different.
# [4] = system: PTZ-induced epilepsy in mice; test: Pentylenetetrazole (PTZ) induced epilepsy in mice; format: in vivo, ICR mice; details: for Grade IV seizure rate / mortality rate / Grade III seizure incubation period / Grade IV seizure incubation period / Cases of deaths / Cases of Grade IV: PTZ 65 mg/kg i.p.; for Grade IV seizure rate / mortality rate: 10 mice; for Grade III seizure incubation period / Grade IV seizure incubation period: mean ± SEM; for Grade IV seizure incubation period: mice not reaching Grade IV recorded as maximum 900 seconds; for Cases of deaths / Cases of Grade IV: of 10 mice; for Cases of Grade IV: 15 minutes observation
# Method: Medicines: Pentylenetetrazol (PTZ), Retigabine, Protein BD-10.
# Experiment grouping: • Model group; • Retigabine 60 mg/kg group; • Protein BD-10, 50 mg/kg group, 200 mg/kg group;
# The drug was administered once in the afternoon the day before modeling, On the day of modeling, PTZ-65 mg/kg (modeling agent) was injected intraperitoneal 1 hour after the test drug was administered intragastrically, and the positive drug can be administered once half an hour before modeling. Continue to observe for 15 minutes after injection of PTZ.
# Observation index: (1)Seizure situation: the time of seizures from Grade III to Grade VI; (2)Death situation
# as §1
# Count the cases of seizures and deaths in each group of mice in the experiment; Grade III and IV incubation period. The incubation period of mice that have not attacked to Grade IV is recorded as the maximum of 900 seconds. Chi-square test was used for statistics of the number of cases. Calculate the mean and standard error of the incubation period. Use TTEST to compare the model group with other groups, and P<0.05 is considered as a significant difference.
# [5] = BD-10 50 mg/kg oral one hour before 0.6% acetic acid i.p.
# [6] = BD-10 200 mg/kg oral one hour before 0.6% acetic acid i.p.
molecule,measurement,setting,value
"BD-10: recombinant keratin with amino acid sequence SEQ ID NO:1, expressed in E. coli inclusion bodies, band around 55 kD (protein, listed as Bos taurus) MSCRSYRISPGYSVTRTFSSCSAVAPKTGSRCCITAAPYRGVSCYRGLTGFGSRSVSALGSCGPRIAVGGFRAGSCNRSFGYRSGGVGGLSPPCITTVSVNESLLTPLNLEIDPNAQCVKHEEKEQIKNLNSRFAAFIDKVRFLEQQNKLLETKWQFYQNQRCCESNLEPLFNGYIETLRREAEHVEADGGRLASELNHVQEVLEGYKKKYEEEVALRATAENEFVVLKKDVDCAYLRKSDLEANVEALVEESNFLKRLYDEEIQILNAHISDTSVIVKMDNSRDLNMDCVVAEIKAQYDDIASRSRAEAESWYRNKCEEMKATVIRHGETLRRTKEEINELNRIIQRLTAEIENAKCQRTKLEAAVAEAEQQGEAALNDARCKLAGLEEALQKAKQDMACLLKEYQEVMNSKLGLDIEIATYRRLLEGEEQRLCEGVGSVNVCVSSSRGGVTCGGLTYSTTAGRQIASGPVATGGSITVLAPDSCVPCQPRASSFSCGSSRSVRFA",Incubation period (cough),[1]; BD-10 20 mg/kg oral,31.4 ± 2.6 s
same,Number of coughs,[1]; BD-10 20 mg/kg oral,55.3 ± 4.2
same,Incubation period (cough),[1]; BD-10 50 mg/kg oral,29.4 ± 3.0 s
same,Number of coughs,[1]; BD-10 50 mg/kg oral,59.8 ± 3.9
same,Effect on incubation period and number of coughs (in words),"[1]; BD-10, dose not stated, not statistically significant",has a tendency to prolong the incubation period and reduce the number of coughs
same,"Incubation period of epilepsy Grade III, comparison with model group (in words)","[2]; BD-10 50 mg/kg dose group, PLO model",statistically different from the model group
same,Grade IV seizure rate,[2]; BD-10 50 mg/kg intragastric,90%
same,mortality rate,[2]; BD-10 50 mg/kg intragastric,0
same,Grade II seizure incubation period,[2]; BD-10 50 mg/kg intragastric,93 ± 4 s
same,Grade III seizure incubation period,[2]; BD-10 50 mg/kg intragastric,166 ± 8 s
same,Grade IV seizure incubation period,[2]; BD-10 50 mg/kg intragastric,871 ± 144 s
same,Cases of deaths,[2]; BD-10 50 mg/kg intragastric,0
same,Cases of Grade IV,[2]; BD-10 50 mg/kg intragastric,9
same,Grade IV seizure rate,[2]; BD-10 200 mg/kg intragastric,70%
same,mortality rate,[2]; BD-10 200 mg/kg intragastric,0
same,Grade II seizure incubation period,[2]; BD-10 200 mg/kg intragastric,90 ± 6 s
same,Grade III seizure incubation period,[2]; BD-10 200 mg/kg intragastric,151 ± 7 s
same,Grade IV seizure incubation period,[2]; BD-10 200 mg/kg intragastric,918 ± 198 s
same,Cases of deaths,[2]; BD-10 200 mg/kg intragastric,0
same,Cases of Grade IV,[2]; BD-10 200 mg/kg intragastric,7
same,"Effect on incubation period of Grade III epilepsy (in words, summary)","[2]; BD-10, dose not stated, PLO model",can significantly prolong the incubation period of Grade III epilepsy
same,Effect on writhing (in words),"[3]; BD-10 50 mg/kg and 200 mg/kg dose groups, vs model group P<0.05",can significantly reduce the number of writhing mice
same,Frequency of writhing,[3]; [5],22.7 ± 3.9 times
same,Writhing incubation period,[3]; [5],237.4 ± 44.8 s
same,Frequency of writhing,[3]; [6],19.8 ± 3.7 times
same,Writhing incubation period,[3]; [6],251.2 ± 43.3 s
same,"Effect on number of writhing times (in words, summary)","[3]; BD-10, dose not stated",can significantly reduce the number of writhing times
same,Grade IV seizure rate,[4]; BD-10 50 mg/kg intragastric,80%
same,mortality rate,[4]; BD-10 50 mg/kg intragastric,0%
same,Grade III seizure incubation period,[4]; BD-10 50 mg/kg intragastric,63 ± 2 s
same,Grade IV seizure incubation period,[4]; BD-10 50 mg/kg intragastric,296 ± 106 s
same,Cases of deaths,[4]; BD-10 50 mg/kg intragastric,0
same,Cases of Grade IV,[4]; BD-10 50 mg/kg intragastric,8
same,Grade IV seizure rate,[4]; BD-10 200 mg/kg intragastric,70%
same,mortality rate,[4]; BD-10 200 mg/kg intragastric,0%
same,Grade III seizure incubation period,[4]; BD-10 200 mg/kg intragastric,81 ± 9 s
same,Grade IV seizure incubation period,[4]; BD-10 200 mg/kg intragastric,359 ± 120 s
same,Cases of deaths,[4]; BD-10 200 mg/kg intragastric,0
same,Cases of Grade IV,[4]; BD-10 200 mg/kg intragastric,7
same,Effect on incubation period of Grade IV epilepsy (in words),"[4]; BD-10, PTZ model, no statistical difference compared with the model group",has a tendency to extend the incubation period
